Measurements published in patent US6348573B1, “Compositions and methods for identifying apoptosis signaling pathway inhibitors and activators” (The Regents of the University of Michigan, priority 1998, dated 2002).

Tests used:
293T cells = experiment: β-galactosidase apoptosis assay, ARC co-transfection; type: cell-based, human
Procedure: Briefly, 2 μg of pcDNA3 or pcDNA3-ARC-Flag or -HA was co-transfected with 3 μg of pcDNA3 or caspase expression plasmids. Total amount of transfected plasmid DNA was always 5 μg. 293T cells were harvested after 22 hr and lysed with 0.2% NP-40 isotonic lysis buffer [Z. N. Oltvai et al., Cell 74:609-619 (1993)]. For immunoprecipitation, […] of soluble protein was incubated with 10 μg/ml of polyclonal anti-Flag, monoclonal anti-AU1 or polyclonal anti-HA antibody for 2 hr at 4° C. and tagged proteins were immunoprecipitated with Protein A-Sepharose 4B (Zymed Laboratories Inc., San Francisco, Calif.). Immunoprecipitates were subjected to 12% SDS-polyacrylamide electrophoresis and immunoblotted with anti-Flag, anti-AU1 or anti-HA antibodies. β-galactosidase apoptosis assay and Caspase-8 enzymatic assay: 5×10^5 293T cells were transfected with 0.3 μg of pcDNA3-β-gal plus each expression plasmid in triplicate. Cells were fixed 16 hrs after transfection, stained for β-galactosidase and assayed for morphological features of apoptosis [M. Muira et al., Cell 75:653-660 (1993)]. Statistical significance was determined by one-way ANOVA followed by Student-Neuman-Keuls post-doc comparisons. For caspase-8 enzymatic assay, 1.5×10^6 human 293T cells were co-transfected with pcDNA3, pcDNA3-ARC-Flag, pcDNA3-caspase-8 and pcDNA3-caspase-8-mt by a calcium phosphate method. Total amount of transfected plasmid DNA was always 2.5 μg. 293T cells were harvested 18hr after transfection and lysed with 0.2% NP-40 isotonic lysis buffer. Tagged proteins were immunoprecipitated and caspase activity was measured as described [N. Inohara et al., Proc. Natl. Acad. Sci. USA 94:10717-10722 (1997)].

caspase-8 = target: T1, caspase-8 (Homo sapiens, UniProt Q14790); experiment: Caspase-8 enzymatic assay (DEVD-AMC) on immunoprecipitates of ARC co-transfected cells; type: biochemical; details: immunoprecipitated caspase-8 from 293T cells, fluorogenic substrate DEVD-AMC
T1 construct: expressed in transfected cells; host or cells: human 293T cells
T1 sequence (Q14790 1-496 isoform Q14790-4): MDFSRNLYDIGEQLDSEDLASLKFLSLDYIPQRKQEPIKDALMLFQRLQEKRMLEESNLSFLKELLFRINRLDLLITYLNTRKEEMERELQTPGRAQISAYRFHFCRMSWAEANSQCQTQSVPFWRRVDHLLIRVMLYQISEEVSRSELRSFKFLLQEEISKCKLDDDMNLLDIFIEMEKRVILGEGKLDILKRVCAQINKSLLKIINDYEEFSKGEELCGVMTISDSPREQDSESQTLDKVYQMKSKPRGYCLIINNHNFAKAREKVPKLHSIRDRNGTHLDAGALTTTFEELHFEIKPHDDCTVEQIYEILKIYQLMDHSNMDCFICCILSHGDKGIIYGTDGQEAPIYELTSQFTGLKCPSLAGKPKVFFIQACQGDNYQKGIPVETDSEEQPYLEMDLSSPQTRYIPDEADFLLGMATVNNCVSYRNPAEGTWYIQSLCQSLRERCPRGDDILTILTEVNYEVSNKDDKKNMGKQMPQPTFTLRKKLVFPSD
Procedure: [293T cell were co-transfected with pcDNA3-caspase-8-AU1 or pcDNA3-caspase-8-mut and pcDNA3-ARC-Flag or pcDNA3]. Caspase-8 in cell extracts was immunoprecipitated with anti-AU1 antibody and immunoprecipitates were incubated with the fluorogenic substrate DEVD-AMC. ◯:pcDNA3 alone; ●:pcDNA3-ARC-HA alone; □:pcDNA3-caspase-8-AU1 alone; ▪:pcDNA3-caspase-8-AU1 and pcDNA3-ARC-HA; ^Δ:pcDNA3-caspase-8-mt-AU1 alone.
β-galactosidase apoptosis assay and Caspase-8 enzymatic assay: 5×10^5 293T cells were transfected with 0.3 μg of pcDNA3-β-gal plus each expression plasmid in triplicate. Cells were fixed 16 hrs after transfection, stained for β-galactosidase and assayed for morphological features of apoptosis [M. Muira et al., Cell 75:653-660 (1993)]. Statistical significance was determined by one-way ANOVA followed by Student-Neuman-Keuls post-doc comparisons. For caspase-8 enzymatic assay, 1.5×10^6 human 293T cells were co-transfected with pcDNA3, pcDNA3-ARC-Flag, pcDNA3-caspase-8 and pcDNA3-caspase-8-mt by a calcium phosphate method. Total amount of transfected plasmid DNA was always 2.5 μg. 293T cells were harvested 18hr after transfection and lysed with 0.2% NP-40 isotonic lysis buffer. Tagged proteins were immunoprecipitated and caspase activity was measured as described [N. Inohara et al., Proc. Natl. Acad. Sci. USA 94:10717-10722 (1997)].

caspase-1 = target: T2, caspase-1 (Homo sapiens, UniProt P29466); experiment: Co-immunoprecipitation of ARC with caspase-1; type: binding; details: 293T lysates
T2 construct: expressed in transfected cells; host or cells: human 293T cells
T2 sequence (P29466 120-404): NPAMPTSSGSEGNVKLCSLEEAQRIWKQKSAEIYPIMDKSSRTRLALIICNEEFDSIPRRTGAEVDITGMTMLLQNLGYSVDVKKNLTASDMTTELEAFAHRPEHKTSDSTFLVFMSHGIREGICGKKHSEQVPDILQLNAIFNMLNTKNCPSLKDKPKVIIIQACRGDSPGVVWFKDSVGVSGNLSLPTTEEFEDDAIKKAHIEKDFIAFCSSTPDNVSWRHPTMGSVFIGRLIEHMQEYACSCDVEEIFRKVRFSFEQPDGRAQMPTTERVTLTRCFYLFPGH
Procedure: Briefly, 2 μg of pcDNA3 or pcDNA3-ARC-Flag or -HA was co-transfected with 3 μg of pcDNA3 or caspase expression plasmids. Total amount of transfected plasmid DNA was always 5 μg. 293T cells were harvested after 22 hr and lysed with 0.2% NP-40 isotonic lysis buffer [Z. N. Oltvai et al., Cell 74:609-619 (1993)]. For immunoprecipitation, […] of soluble protein was incubated with 10 μg/ml of polyclonal anti-Flag, monoclonal anti-AU1 or polyclonal anti-HA antibody for 2 hr at 4° C. and tagged proteins were immunoprecipitated with Protein A-Sepharose 4B (Zymed Laboratories Inc., San Francisco, Calif.). Immunoprecipitates were subjected to 12% SDS-polyacrylamide electrophoresis and immunoblotted with anti-Flag, anti-AU1 or anti-HA antibodies.

[1] = target: T3, FADD (Fas-associated death domain protein), expressed in 293T cells (human, UniProt Q13158 1-208); experiment: co-immunoprecipitation from co-transfected 293T cells (data not shown)
T3 construct: also called MORT-1; pcDNA3-FADD-AU1
T3 sequence (looked up): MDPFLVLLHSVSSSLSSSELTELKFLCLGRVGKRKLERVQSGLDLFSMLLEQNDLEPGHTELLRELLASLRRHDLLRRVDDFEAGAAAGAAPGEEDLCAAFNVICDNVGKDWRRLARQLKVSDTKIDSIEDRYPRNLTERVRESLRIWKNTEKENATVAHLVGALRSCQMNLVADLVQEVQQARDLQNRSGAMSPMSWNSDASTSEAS

Bcl-XL = Bcl-XL (UniProt Q07817 1-233); experiment: as above
Chain of Bcl-XL (Q07817 whole entry): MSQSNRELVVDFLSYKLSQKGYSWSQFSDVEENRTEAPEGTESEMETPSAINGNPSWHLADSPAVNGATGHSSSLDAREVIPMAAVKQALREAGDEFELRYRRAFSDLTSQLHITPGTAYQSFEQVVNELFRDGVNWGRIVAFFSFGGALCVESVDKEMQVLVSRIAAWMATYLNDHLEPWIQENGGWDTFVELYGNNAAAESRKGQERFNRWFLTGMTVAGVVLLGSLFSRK

c-IAP-2 = c-IAP-2 (UniProt Q13489 1-604); experiment: as above
Chain of c-IAP-2 (Q13489 whole entry): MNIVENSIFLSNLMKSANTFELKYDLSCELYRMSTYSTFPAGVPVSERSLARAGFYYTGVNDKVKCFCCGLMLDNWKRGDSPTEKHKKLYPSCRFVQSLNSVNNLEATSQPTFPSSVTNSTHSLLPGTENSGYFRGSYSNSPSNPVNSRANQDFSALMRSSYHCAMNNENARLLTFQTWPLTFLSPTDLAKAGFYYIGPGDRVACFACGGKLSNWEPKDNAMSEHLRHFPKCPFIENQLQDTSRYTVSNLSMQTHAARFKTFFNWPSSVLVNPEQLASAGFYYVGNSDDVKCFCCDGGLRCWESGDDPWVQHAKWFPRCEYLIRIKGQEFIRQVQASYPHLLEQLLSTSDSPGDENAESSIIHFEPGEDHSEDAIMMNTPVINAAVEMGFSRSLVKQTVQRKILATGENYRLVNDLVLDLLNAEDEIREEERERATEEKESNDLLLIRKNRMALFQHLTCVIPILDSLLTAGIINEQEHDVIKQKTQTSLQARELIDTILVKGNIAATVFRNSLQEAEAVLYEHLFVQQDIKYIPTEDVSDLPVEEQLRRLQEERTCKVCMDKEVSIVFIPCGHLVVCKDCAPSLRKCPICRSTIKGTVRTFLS

B1: human ARC (Apoptosis Repressor with CARD domain), C-terminally Flag- or HA-tagged (other)
chain: MGNAQERPSETIDRERKRLVETLQADSGLLLDALLARGVLTGPEYEALDALPDAERRVRRLLLLVQGKGEAACQELLRCAQRTAGAPDPAWDWQHVGPGYRDRSYDPPCPGHWTPEAPGSGTTCPGLPRASDPDEAGGPEGSEAVQSGTPEEPEPELEAEASKEAEPEPEPEPELEPEAEAEPEPELEPEPDPEPEPDFEERDESEDS
notes: Entire open reading frame expressed in 293T cells; The two tagged constructs are merged here; also called ARC-Flag; ARC-HA; not shown: C-terminal FLAG or HA tag
293T cells; ARC alone
  induction of apoptosis by expression of ARC: did not induce apoptosis
293T cells; co-expression with ARC
  apoptosis induced by C. elegans CED-3: inhibited
  apoptosis induced by CLARP: inhibited
  apoptosis induced by FADD: inhibited
  apoptosis induced by TRADD: inhibited
  apoptosis induced by caspase-8: inhibited caspase-8-induced killing in a dose-dependent manner
  apoptosis induced by stimulation of CD95/Fas receptor: partially but significantly inhibited
  apoptosis induced by stimulation of TNF-R1 receptor: partially but significantly inhibited
  apoptosis induced by stimulation of TRAMP/DR3 receptor: partially but significantly inhibited
  apoptosis mediated by caspase-9: not
caspase-8
  enzymatic activity of caspase-8: inhibited
caspase-1
  co-immunoprecipitation with caspase-1: not
[1]
  binding result: no binding
Bcl-XL
  binding result: no binding
c-IAP-2
  binding result: no binding
